Experimental data: patent US20250043290A1, “RNA SEQUENCES THAT INDUCE FLUORESCENCE OF SMALL MOLECULE FLUOROPHORES, MOLECULAR COMPLEXES, SENSORS, AND METHODS OF USE THEREOF” (CORNELL UNIVERSITY, priority 2021, published 2025)

Legend:
[1] = Fluorescence activation of DFHO by aptamers in vitro; format: biochemical
Source text: FIG. 2A is a schematic showing the secondary structure of Squash as predicted by mFOLD (Squash: 5′-GGCUACAAGGUGAGCCCAAUAAUACGGUUUGGGUUAGGAUAGGAAGUAGAGCCGUAAACUCUCUAAGCGGUAGUC-3′ (SEQ ID NO:1)). Squash retained the main structural elements of add A-riboswitch aptamer including a 3-way junction and predicted kissing loop interactions (residues at positions 30, 31, 56, and 57, solid gray line). An additional base pair in the kissing loop between loop L2 and L3 (residues at positions 29 and 58, dotted gray line) improved fluorescence activation. […] Shown are the excitation (Ex) and emission (Em) spectra of Squash bound to DFHBI-1T and DFHO (structures shown in inset). Spectra were measured using 20 μM RNA and 2 μM of the indicated fluorogenic dye. […] Fluorescence activation was measured by incubating 200 nM dye and 10 μM RNA. By using a large excess of RNA compared to the fluorophore, it was ensured that the fluorescence observed is from 200 nM RNA-fluorophore complex. Data represent mean values±s.d. for n=3 independent experiments. The values inside the bars indicate fold activation. AU, arbitrary units. FIG. 2D is a graph showing the dissociation constant (Kd) between Squash and DFHO as measured by titration of 50 nM Squash with increasing concentration of DFHO, and fitted using a one-site saturation model. […] FIG. 2E is a bar graph showing the results of an experiment in which Squash-DFHO fluorescence was measured in buffers containing exclusively the indicated cations. […] Similar to the parental add A-riboswitch aptamer (see Lemay et al., “Folding of the Adenine Riboswitch,” Chem. Biol. 13:857-868 (2006), which is hereby incorporated by reference in its entirety), Squash-DFHO has a low magnesium requirement for fluorescence activation. […]
FIG. 6A is a bar graph showing fluorescence activation of DFHO by Squash and its precursors. Fluorescence was measured with 200 nM dye and 10 μM RNA (ex: 495 nm, em: 562 nm, except for Corn; ex: 505 nm, em: 545 nm). […] FIG. 6B is a bar graph showing fluorescence of initial hits after Round 7 of SELEX. In vitro transcribed RNAs from each hit (1 μM final) were mixed with DFHBI-1T (10 μM final) and the fluorescence was measured (ex: 452 nm, em: 503 nm, except for Broccoli; ex: 472 nm, em: 507 nm). […] FIGS. 6C-6D are bar graphs showing fluorescence measurements of the hits with DFHBI-1T after first (FIG. 6C) and second (FIG. 6D) round of directed evolution, measured as in FIG. 6B. […] FIG. 6E is a bar graph showing fluorescence measurements of hits using DFHO after the second round of directed evolution measured as in FIG. 6A. The fluorescence of the hits were normalized against Corn. […] FIG. 6F is a graph showing normalized fluorescence. […] Fluorescence was measured as in FIG. 6A. […]

[2] = Kd measurements for Broccoli and Squash binding to BI; conditions: 50 nM RNA
Procedure: FIGS. 7A-7H provide photophysical and biophysical characterization of Squash. […] Excess RNA was used to ensure binding of nearly all fluorophore. […] Data represent mean values±s.d. for n=3 independent experiments. […] The fluorescence signal trace was fitted with a monoexponential curve to extract kobs. kobs was plotted as a function of total RNA (50 nM RNA) and fluorophore concentration. kon and koff were extracted as the slope and intercept, respectively. Squash koff (0.014±0.008 s^−1) is very similar to that of Corn (0.018±0.002 s^−1). kon for Squash-DFHO (162300±8100 M^−1 s^−1) is seven-times higher than Corn-DFHO (23000±3000 M^−1 s^−1) which could be due to the high folding of Squash. […]
Dissociation constants (Kd) for the RNA-fluorophore complexes were determined as described previously (Paige et al., “RNA Mimics of Green Fluorescent Protein,” Science 333:642-646 (2011) and Filonov et al., “Broccoli: Rapid Selection of an RNA Mimic of Green Fluorescent Protein by Fluorescence-Based Selection and Directed Evolution,” J. Am. Chem. Soc. 136: 16299-16308 (2014), which are hereby incorporated by reference in their entirety). In brief, the RNA aptamer at a fixed concentration (50 nM) was titrated with increasing fluorophore concentration and the resulting increase in fluorescence was recorded. […]

B1: Squash: fluorogenic RNA aptamer evolved from the add A-riboswitch aptamer, binds DFHBI-1T and DFHO; SEQ ID NO: 12 (SEQ ID NO: 1) (nucleic acid)
chain: AGGUGAGCCCAAUAAUACGGUUUGGGUUAGGAUAGGAAGUAGAGCCGUAAACUCUCUAAGCG
modifications: RNA, backbone not given here
Fold activation of DFHO fluorescence [1]: 550 fold
Activation of DFHO compared to Corn ([1]; 200 nM dye and 10 μM RNA): > 2 fold
Fluorescence intensity with DFHO compared to Corn ([1]; 10 μM RNA, 1 μM DFHO): more than two-fold higher
Affinity for BI [2]: much weaker affinity than Broccoli
